{
  "source": "patent US20030175278A1",
  "about": "(published 2003)",
  "biological_target": "T1, PS2-COOH terminus Y2H bait (PS2 COOH-terminal 39 amino acids, K410-I448) (human)",
  "T1 construct": "also called PS2-COOH-terminal bait; not shown: the LexA fusion partner of the bait and any linker",
  "T1 sequence (chain, as listed by the source limits assumed)": "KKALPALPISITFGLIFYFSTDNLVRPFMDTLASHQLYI",
  "experiment": "Y2H β-galactosidase liquid culture assay (ONPG)",
  "method": "The yeast two-hybrid (Y2H) procedure that utilizes the LexA/transactivation system was performed, as described previously (Stabler, et al. 1999). The PS2 COOH-terminal 39-amino acids (residues […]) (see FIG. 1a and FIG. b) were used as bait to screen a human fetal brain cDNA library. Out of 10⁷ primary yeast transformants, 50 clones were selected for further analysis based on growth in the absence of leucine and a substantial blue color change when grown on 5-bromo-4-chloro-3-indolyl-β-D-galactopyranoside (X-gal) plates. False positives were subsequently eliminated based on their interactions with negative-control baits, such as LexA alone, nuclear lamin B, and CENP-C centromere protein. Plasmid DNAs were isolated from clones that fulfilled the above requirements, and the DNA sequences of their inserts were determined and compared with the GenBank/EMBL/DDBJ databases using the BLAST search program. […] Interaction of ubiquilin proteins with various PS1 and PS2 baits were quantified in liquid culture assays by the enzymatic conversion of o-nitrophenyl-β-D-galactopyranoside (ONPG) to o-nitrophenol and D-galactose by β-galactosidase enzyme encoded by an Y2H reporter plasmid.\nInteraction between ubiquilin and the presenilins was quantified in Y2H β-galactosidase liquid culture assays. […]",
  "data": [
    {"binder": "ubiquilin-prey clone (FIG. 2 III, construct B without GST), Q378-S595 (other, not shown: large carriers, also called partial ubiquilin clone (encoding the COOH-terminal 218 residues)) QSLLQQITENPQLMQNMLSAPYMRSMMQSLSQNPDLAAQMMLNNPLFAGNPQLQEQMRQQLPTFLQQMQNPDTLSAMSNPRAMQALLQIQQGLQTLATEAPGLIPGFTPGLGALGSTGGSSGTNGSNATPSENTSPTAGTTEPGHQQFIQQMLQALAGVNPQLQNPEVRFQQQLEQLSAMGFLNREANLQALIATGGDINAAIERLLGSQHHSSISVS", "values": [
      {"measurement": "fold β-galactosidase activity compared with negative-control baits", "result": "> 55", "unit": "fold"}
    ]},
    {"binder": "near full-length ubiquilin-prey clone (FIG. 2 III, construct H without GST), M37-S595 (other, not shown: large carriers, also called near full-length clone (encoding residues 37-595); the longer ubiquilin clone) MKVTVKTPKEKEEFAVPENSSVQQFKEEISKRFKSHTDQLVLIFAGKILKDQDTLSQHGIHDGLTVHLVIKTQNRPQDHSAQQTNTAGTNVTTSSTPNSNSTSGSATSNPFGLGGLGGLAGLSSLGLNTTNFSELQSQMQRQLLSNPEMMVQIMENPFVQSMLSNPDLMRQLIMANPQMQQLIQRNPEISHMLNNPDIMRQTLELARNPAMMQEMMRNQDRALSNLESIPGGYNALRRMYTDIQEPMLSAAQEQFGGNPFASLVSNTSSGEGSQPSRTENRDPLPNPWAPQTSQSSSASSGTASTVGGTTGSTASGTSGQSTTAPNLVPGVGASMFNTPGMQSLLQQITENPQLMQNMLSAPYMRSMMQSLSQNPDLAAQMMLNNPLFAGNPQLQEQMRQQLPTFLQQMQNPDTLSAMSNPRAMQALLQIQQGLQTLATEAPGLIPGFTPGLGALGSTGGSSGTNGSNATPSENTSPTAGTTEPGHQQFIQQMLQALAGVNPQLQNPEVRFQQQLEQLSAMGFLNREANLQALIATGGDINAAIERLLGSQHHSSISVS", "values": [
      {"measurement": "fold β-galactosidase activity compared with negative-control baits", "result": "> 55", "unit": "fold"}
    ]}
  ]
}
